Numbering of substitutions follows the chain as printed.

The target in data set [1] is T1, HisMBP-REST/DBD (UniProt Q13127 159-412).
T1 sequence: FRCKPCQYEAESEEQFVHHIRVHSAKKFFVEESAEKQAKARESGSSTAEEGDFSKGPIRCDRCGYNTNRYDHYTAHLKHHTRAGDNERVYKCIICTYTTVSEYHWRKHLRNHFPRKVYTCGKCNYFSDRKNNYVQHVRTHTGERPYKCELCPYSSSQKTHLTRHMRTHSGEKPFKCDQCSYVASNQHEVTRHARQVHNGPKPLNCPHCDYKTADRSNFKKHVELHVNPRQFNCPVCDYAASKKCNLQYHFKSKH
Nature of the data set: competition EMSA; 10 mM Tris-HCl pH 8.0, 100 mM KCl, 50 uM ZnCl2 (printed '50 M ZnCl', symbols lost), 2 mM 2-mercaptoethanol, 10% glycerol, 0.1% NP-40, 0.1 mg/ml BSA; 0.5 nM probe, 150 nM competitor, 40 nM protein, 1 h; temperature lost in text. The settings on record: protein: recombinant; tags: His-MBP. For orientation: A gel shift assay detects complexes by their altered migration in electrophoresis.

Data set [2] has as its target T1, HisMBP-REST/DBD. The data set can be described thus: competition; 10 mM Tris-HCl pH 8.0, 100 mM KCl, 50 uM ZnCl2 (printed '50 M ZnCl', symbols lost), 2 mM 2-mercaptoethanol, 10% glycerol, 0.1% NP-40, 0.1 mg/ml BSA; 0.5 nM probe, 150 nM competitor, 40 nM protein, 1 h; temperature lost in text. The settings on record: protein: recombinant; tags: His-MBP.

B1: Ideal RE1 (Chrm4) (dsDNA)
DNA 1: TCAGCCTCTCTTCAGCACCTCGGACAGCTCCGGACCTCTC
DNA 2: GAGAGGTCCGGAGCTGTCCGAGGTGCTGAAGAGAGGCTGA
As for B1, the binding result with HisMBP-REST/DBD [1] is reported as “binds”.

B2: Mutated RE1 (Mut) (dsDNA)
DNA 1: B1 DNA 1 with C18G, C19G, G22C, G23C
DNA 2: B1 DNA 2 with C18G, C19G, G22C, G23C
Turning to B2, in the data set with HisMBP-REST/DBD [2], the binding result is given as “no binding”.

The record behind these values is PMC3320604, “A Genome-Wide Screen for Genetic Variants That Modify the Recruitment of REST to Its Target Genes”.
